This is an account of results in US6686177B1, “Insulin analogs with enhanced zinc binding” (Aventis Pharma Deutschland GmbH, priority 1998, dated 2004).

Series [1] in a line: Zinc binding of insulin analogs (dialysis against zinc-free neutral buffer, HPLC and atomic absorption spectroscopy). The format is physicochemical. Conditions: for Zinc binding: after extensive dialysis against zinc-free neutral buffer, pH 7.4; for zinc ions bound per hexamer: aqueous neutral solution, not removable by dialysis.
Procedure: The dialyzates were then acidified and analyzed. The concentration of insulin was determined by reversed phase HPLC and that of the zinc by atomic absorption spectroscopy. The zinc values were corrected using the zinc content of a control batch which contained no insulin.
The conditions of series [2]: aqueous neutral solution, not removable by dialysis; cited from earlier work.

On to human insulin [reference compound], for which, in series [1], the Zinc binding is 2.5 mol of zinc/mol of hexamer. Further, the “zinc ions complexed per hexamer via the His(B10) side chains” value in series [2] is reported as “two”.

Take His(B3)-human insulin [His(B3)-insulin]: in series [1], the Zinc binding is recorded as 6.9 mol of zinc/mol of hexamer and the “zinc ions bound per hexamer” value was “approximately 7 zinc ions/hexamer”.

As to Asp(B3)-human insulin [Asp(B3)-insulin], in series [1], the Zinc binding is 4.2 mol of zinc/mol of hexamer and the “zinc ions bound per hexamer” value came to 4.2 zinc ions/hexamer.
